Experimental data taken from article PMC4266924.
Values joined by “and” are separate entries in the source; they are usually repeats but may differ in a detail not shown here. Equal values may be shown once.

Tests used:
[1] = target: full-length, untagged 18.5-kDa murine MBP (A1-R168) (mouse); assay: ITC; Fyn-SH3 (0.7-1.3 mM) injected into the cell with MBP (45-80 uM); 20 mM HEPES, 100 mM NaCl, pH 7.4; 22 °C; 3 independent measurements; one-set of sites model; apparent values, first 3-4 points excluded (aggregation)
[2] = target: full-length, untagged 18.5-kDa murine MBP (A1-R168) (mouse); assay: ITC; Fyn-SH3 (0.7-1.3 mM) injected into the cell with MBP (45-80 uM); 20 mM HEPES, 100 mM NaCl, pH 7.4; 37 °C; 2 independent measurements; one-set of sites model; apparent values, first 3-4 points excluded (aggregation)
[3] = target: xα2(S38–S107) peptide of murine 18.5 kDa myelin basic protein (mouse); assay: NMR titration; unlabelled Fyn–SH3 titrated into 0.8 mM 15N-labelled xα2-peptide; 2D 15N-HSQC; 20 mM Hepes, 100 mM NaCl, 10% 2H2O, pH 7.4; molar ratios 1:0 to 1:1.2; fractional saturation fit of Y65 and T95 shifts; KD values are only estimates

Sequence of full-length, untagged 18.5-kDa murine MBP (A1-R168) (mouse) (P02686 other isoform, or with tags, fused parts or gaps): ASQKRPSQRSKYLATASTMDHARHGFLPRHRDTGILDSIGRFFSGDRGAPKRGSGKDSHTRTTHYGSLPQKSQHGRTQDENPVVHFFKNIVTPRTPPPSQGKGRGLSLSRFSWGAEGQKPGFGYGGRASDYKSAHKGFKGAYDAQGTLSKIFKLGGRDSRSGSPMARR

Kd [1] [µM] | stoichiometry N [1] | Kd [2] [µM] | stoichiometry N [2] | Kd [3] | Substance
5 | 0.6 | 5 | 1.2 | – | Fyn-SH3 domain (Gallus gallus Fyn, residues 85-142) (from UniProt Q05876 85-142) (domain or fragment)
– | – | – | – | 7.6 µM and 4 µM | Fyn–SH3 domain (Gallus gallus Fyn tyrosine kinase, residues 85–142) (from UniProt Q05876 85-142) (domain or fragment)
